# Data taken from paper PMC6982183.
# Target: human Hsp60 G190W mutant (human) (UniProt P10809)
# Assay: SEC; Superdex 200 Increase 10/300 GL, 50 mM Tris-HCl (pH 7.8 at 25 °C), 2 mM DTT, 2 mM EDTA, 0.5 mg sample, 0.75 mL/min; size from calibration with molecular weight standards; before and after agitation
substance,measurement,value
human Hsp60 G190W mutant (from UniProt P10809 53-573) (natural protein),stoichiometry N,14
